Reference: article PMC7532178, “Interaction of protocadherin-15 with the scaffold protein whirlin supports its anchoring of hair-bundle lateral links in cochlear hair cells” (Scientific Reports, 2020)
No end group written: not given here. *: point of attachment. Biotin = O=C1N[C@H]2[C@H](CS[C@H]2CCCCC(=O)*)N1; TTDS = trioxatridecan-succinamic acid spacer

T1: whirlin-NTR (aa residues 2-147) (mouse, UniProt Q80VW5-1 2-147)
T1 construct: extra 7 aa at the N-terminus of all recombinant proteins of the study; also called entire NTR of whirlin (containing the HHD1 domain); source: E. coli BL21 (DE3) codonPlus-RIPL, purified (Glutathione Sepharose 4B, GST removed by TEV proteinase, SEC)
T1 sequence: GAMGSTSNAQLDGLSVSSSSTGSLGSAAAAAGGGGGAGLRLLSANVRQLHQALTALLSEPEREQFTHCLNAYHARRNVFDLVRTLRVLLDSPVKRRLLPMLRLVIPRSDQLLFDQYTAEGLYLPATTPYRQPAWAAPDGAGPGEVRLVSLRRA

T2: whirlin-PDZ2 (aa residues 272-368) (mouse, UniProt Q80VW5-1 272-368)
T2 construct: extra 7 aa at the N-terminus of all recombinant proteins of the study; whirlin, residues 272-368: PDZ2 domain; source: E. coli BL21 (DE3) codonPlus-RIPL, purified (Glutathione Sepharose 4B, GST removed by TEV proteinase, SEC)
T2 sequence: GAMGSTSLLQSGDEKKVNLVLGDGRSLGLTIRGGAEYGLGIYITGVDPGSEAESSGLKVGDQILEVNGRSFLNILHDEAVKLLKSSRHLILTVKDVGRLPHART

T3: whirlin-PDZ3 (aa residues 821-915) (mouse, UniProt Q80VW5-1 821-915)
T3 construct: extra 7 aa at the N-terminus of all recombinant proteins of the study; whirlin, residues 821-915: PDZ3 domain, common to L- and S-whirlin; also called whirlin PDZ3 domain
T3 sequence: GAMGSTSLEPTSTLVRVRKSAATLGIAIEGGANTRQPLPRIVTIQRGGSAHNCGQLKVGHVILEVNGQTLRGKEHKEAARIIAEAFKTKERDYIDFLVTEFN


Tests used:
Assay in all cases: SPR; ProteOn XPR 36; N-terminally biotinylated peptides captured on a Neutravidin NLC sensor chip, whirlin fragments flowed as analytes at 20 μL/min for 2 min; 250 mM NaCl, 50 mM Tris pH 7.5, 0.5 mM TCEP; steady-state fit Req = (Rmax*C)/(Kd+C); mean of three experiments; Figure 4B shows the responses at 10 μM
Details in all cases: both partners purified
[1] = target: T1, whirlin-NTR (aa residues 2-147)
[2] = target: T2, whirlin-PDZ2 (aa residues 272-368)
[3] = target: T3, whirlin-PDZ3 (aa residues 821-915)

Binder	Kd [1] [µM]	Kd [2] [µM]	Kd [3] [µM]
{Biotin-TTDS}-GIDVQPHSQSTSL (C-terminal 13 aa of protocadherin-15 isoform CD1, including the PBM; source: synthetic peptide (Eurogentec); not shown: biotin, N-terminal, kept) [PCDH15-CD1 C-terminal peptide (biotin-TTDS-GIDVQPHSQSTSL)]	> 1000	> 1000	> 1000
{Biotin-TTDS}-GANSEQYNTAL (C-terminal 11 aa of protocadherin-15 isoform CD2, including the PBM; source: synthetic peptide (Eurogentec); not shown: biotin, N-terminal, kept) [PCDH15-CD2 C-terminal peptide (biotin-TTDS-GANSEQYNTAL)]	> 1000	> 1000	> 1000
{Biotin-TTDS}-MGPWNSLHIPMTKL (C-terminal 14 aa of protocadherin-15 isoform CD3, including the PBM; source: synthetic peptide (Eurogentec); not shown: biotin, N-terminal, kept) [PCDH15-CD3 C-terminal peptide (biotin-TTDS-MGPWNSLHIPMTKL)]	> 1000	460	230
